Laboratory results published in the supplement of paper PMC10065799, “High-throughput profiling of sequence recognition by tyrosine kinases and SH2 domains using bacterial peptide display” (eLife, 2023).

What was measured:
AncSZ = test: phosphorylation enrichment, bacterial display (enrichment ratio); higher = better substrate or ligand; peptides without Tyr show the background
EPHB1 = EPHB1 (UniProt P54762); test: as above
EPHB2 = EPHB2 (UniProt P29323); test: as above
FGFR1 = FGFR1 (UniProt P11362); test: as above
FGFR3 = FGFR3 (UniProt P22607); test: as above
Chain of FGFR3 (P22607 whole entry, looked up): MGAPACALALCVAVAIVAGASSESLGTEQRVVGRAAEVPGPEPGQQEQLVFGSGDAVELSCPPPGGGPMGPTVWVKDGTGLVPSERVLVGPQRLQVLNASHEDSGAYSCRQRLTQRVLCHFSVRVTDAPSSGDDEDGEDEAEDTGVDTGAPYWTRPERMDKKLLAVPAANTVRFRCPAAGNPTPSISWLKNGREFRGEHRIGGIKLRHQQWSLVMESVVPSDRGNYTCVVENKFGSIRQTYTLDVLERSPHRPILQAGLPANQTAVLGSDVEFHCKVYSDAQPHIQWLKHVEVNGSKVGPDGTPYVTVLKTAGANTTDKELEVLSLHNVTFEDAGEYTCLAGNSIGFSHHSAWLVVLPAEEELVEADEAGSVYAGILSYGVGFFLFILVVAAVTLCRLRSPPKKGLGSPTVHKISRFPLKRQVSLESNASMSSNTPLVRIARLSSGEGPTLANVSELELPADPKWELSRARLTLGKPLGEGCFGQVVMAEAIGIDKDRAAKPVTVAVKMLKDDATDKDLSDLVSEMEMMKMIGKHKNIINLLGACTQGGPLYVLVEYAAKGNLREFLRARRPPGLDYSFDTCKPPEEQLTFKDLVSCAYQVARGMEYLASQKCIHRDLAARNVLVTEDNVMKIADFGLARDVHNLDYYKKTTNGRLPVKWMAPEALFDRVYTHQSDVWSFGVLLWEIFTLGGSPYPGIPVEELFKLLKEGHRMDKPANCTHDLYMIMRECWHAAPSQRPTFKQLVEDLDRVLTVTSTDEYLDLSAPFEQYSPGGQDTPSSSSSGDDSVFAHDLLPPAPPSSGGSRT

Fer (mouse) = test: as above
Fes = Fes (UniProt P07332); test: as above
Fyn = Fyn (UniProt P06241); test: as above
Hck = Hck (UniProt P08631); test: as above
Chain of Hck (P08631 whole entry, looked up): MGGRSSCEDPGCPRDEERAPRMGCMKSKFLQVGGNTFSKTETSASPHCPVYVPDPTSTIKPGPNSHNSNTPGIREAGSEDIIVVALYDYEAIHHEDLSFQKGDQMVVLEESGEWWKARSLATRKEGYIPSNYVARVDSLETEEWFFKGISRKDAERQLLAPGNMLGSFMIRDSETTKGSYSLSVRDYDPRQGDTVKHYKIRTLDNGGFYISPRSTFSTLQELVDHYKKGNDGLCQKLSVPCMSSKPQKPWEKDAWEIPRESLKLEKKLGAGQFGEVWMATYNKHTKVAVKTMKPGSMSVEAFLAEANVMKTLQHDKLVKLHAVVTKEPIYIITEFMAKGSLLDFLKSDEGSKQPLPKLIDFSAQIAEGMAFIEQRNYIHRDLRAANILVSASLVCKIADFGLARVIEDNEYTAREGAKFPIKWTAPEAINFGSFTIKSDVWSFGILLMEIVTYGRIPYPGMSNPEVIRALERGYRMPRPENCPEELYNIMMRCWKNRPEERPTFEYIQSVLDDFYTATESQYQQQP

Jak2 = Jak2 (UniProt O60674); test: as above
MERTK = MERTK (UniProt Q12866); test: as above
Chain of MERTK (Q12866 whole entry, looked up): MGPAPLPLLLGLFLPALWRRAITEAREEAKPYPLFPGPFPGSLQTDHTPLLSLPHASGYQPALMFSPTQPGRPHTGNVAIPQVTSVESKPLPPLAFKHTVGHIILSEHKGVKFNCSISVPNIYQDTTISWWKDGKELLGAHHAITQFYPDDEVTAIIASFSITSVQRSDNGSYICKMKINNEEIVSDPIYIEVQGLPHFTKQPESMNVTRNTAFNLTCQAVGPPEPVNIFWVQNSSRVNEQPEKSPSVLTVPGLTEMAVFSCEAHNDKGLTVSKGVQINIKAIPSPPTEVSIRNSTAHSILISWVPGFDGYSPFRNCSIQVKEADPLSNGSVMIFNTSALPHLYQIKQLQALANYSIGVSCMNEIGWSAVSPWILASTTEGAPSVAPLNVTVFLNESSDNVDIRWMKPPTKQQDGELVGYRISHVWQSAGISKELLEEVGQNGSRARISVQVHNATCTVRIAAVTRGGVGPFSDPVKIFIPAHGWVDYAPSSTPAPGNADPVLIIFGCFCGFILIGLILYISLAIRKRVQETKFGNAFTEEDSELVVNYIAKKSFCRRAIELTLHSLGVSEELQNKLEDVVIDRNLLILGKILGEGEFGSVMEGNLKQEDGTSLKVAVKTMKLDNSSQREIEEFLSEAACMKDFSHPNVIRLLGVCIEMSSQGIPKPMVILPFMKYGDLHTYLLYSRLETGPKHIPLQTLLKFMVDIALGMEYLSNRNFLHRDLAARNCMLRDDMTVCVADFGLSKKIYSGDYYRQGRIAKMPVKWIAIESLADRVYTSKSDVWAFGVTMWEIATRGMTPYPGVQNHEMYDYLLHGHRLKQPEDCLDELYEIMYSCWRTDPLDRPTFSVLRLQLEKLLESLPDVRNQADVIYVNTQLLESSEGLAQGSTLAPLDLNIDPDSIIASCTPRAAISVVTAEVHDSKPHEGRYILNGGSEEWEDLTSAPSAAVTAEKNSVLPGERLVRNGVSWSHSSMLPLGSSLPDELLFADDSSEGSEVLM

c-Abl (mouse) = test: as above
c-Src = test: as above
Grb2 SH2 = Grb2 SH2 (UniProt P62993); test: SH2 binding enrichment of the phosphorylated peptide, bacterial display (enrichment ratio); higher = better substrate or ligand; peptides without Tyr show the background
Chain of Grb2 SH2 (P62993 whole entry, looked up): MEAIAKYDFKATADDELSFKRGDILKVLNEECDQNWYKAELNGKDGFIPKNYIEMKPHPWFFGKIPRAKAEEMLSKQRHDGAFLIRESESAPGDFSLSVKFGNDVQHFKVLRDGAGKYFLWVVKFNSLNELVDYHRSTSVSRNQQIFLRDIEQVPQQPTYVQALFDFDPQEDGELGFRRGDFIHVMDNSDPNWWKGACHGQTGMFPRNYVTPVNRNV

SHP2-C SH2 = test: as above
c-Src SH2 = test: as above
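Throughout, for SH2 binding enrichment of the phosphorylated peptide, bacterial display: peptide library displayed on the E. coli surface as eCPX fusions, selected cells deep-sequenced, score is each peptide's frequency after selection divided by its frequency in the input.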
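Throughout, for phosphorylation enrichment, bacterial display: 11-residue human phosphosite peptides and single-mutation variants displayed on the E. coli surface, counted by deep sequencing, each peptide's frequency after selection divided by its frequency in the unselected input library; frequency after pTyr selection over input frequency; kinase dosed for 20-30% of maximal phosphorylation in three min.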

Chain of EPHB1 (P54762 whole entry, looked up): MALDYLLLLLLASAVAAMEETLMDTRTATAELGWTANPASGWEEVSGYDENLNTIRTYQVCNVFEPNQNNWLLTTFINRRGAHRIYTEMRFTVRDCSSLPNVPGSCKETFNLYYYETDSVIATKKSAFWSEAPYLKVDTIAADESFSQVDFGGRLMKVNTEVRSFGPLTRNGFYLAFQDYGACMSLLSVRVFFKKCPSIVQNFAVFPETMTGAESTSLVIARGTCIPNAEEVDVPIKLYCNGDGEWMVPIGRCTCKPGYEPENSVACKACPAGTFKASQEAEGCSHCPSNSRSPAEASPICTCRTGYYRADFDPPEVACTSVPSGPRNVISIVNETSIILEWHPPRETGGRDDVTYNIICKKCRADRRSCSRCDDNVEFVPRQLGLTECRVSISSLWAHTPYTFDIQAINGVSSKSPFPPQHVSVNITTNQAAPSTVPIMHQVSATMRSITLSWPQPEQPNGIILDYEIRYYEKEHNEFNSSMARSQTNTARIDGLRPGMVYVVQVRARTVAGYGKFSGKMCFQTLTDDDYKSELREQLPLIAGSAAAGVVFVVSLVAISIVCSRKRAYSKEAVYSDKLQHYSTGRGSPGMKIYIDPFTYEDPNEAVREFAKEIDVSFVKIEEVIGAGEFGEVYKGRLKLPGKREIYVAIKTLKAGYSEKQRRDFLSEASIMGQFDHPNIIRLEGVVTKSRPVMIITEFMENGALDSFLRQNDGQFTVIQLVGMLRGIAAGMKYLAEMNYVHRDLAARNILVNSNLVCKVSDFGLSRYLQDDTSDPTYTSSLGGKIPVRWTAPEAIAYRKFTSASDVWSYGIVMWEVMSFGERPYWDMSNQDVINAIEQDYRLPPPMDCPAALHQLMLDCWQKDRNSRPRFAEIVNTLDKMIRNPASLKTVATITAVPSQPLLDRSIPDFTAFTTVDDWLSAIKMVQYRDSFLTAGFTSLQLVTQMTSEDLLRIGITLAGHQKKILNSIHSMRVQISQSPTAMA
Chain of EPHB2 (P29323 whole entry, looked up): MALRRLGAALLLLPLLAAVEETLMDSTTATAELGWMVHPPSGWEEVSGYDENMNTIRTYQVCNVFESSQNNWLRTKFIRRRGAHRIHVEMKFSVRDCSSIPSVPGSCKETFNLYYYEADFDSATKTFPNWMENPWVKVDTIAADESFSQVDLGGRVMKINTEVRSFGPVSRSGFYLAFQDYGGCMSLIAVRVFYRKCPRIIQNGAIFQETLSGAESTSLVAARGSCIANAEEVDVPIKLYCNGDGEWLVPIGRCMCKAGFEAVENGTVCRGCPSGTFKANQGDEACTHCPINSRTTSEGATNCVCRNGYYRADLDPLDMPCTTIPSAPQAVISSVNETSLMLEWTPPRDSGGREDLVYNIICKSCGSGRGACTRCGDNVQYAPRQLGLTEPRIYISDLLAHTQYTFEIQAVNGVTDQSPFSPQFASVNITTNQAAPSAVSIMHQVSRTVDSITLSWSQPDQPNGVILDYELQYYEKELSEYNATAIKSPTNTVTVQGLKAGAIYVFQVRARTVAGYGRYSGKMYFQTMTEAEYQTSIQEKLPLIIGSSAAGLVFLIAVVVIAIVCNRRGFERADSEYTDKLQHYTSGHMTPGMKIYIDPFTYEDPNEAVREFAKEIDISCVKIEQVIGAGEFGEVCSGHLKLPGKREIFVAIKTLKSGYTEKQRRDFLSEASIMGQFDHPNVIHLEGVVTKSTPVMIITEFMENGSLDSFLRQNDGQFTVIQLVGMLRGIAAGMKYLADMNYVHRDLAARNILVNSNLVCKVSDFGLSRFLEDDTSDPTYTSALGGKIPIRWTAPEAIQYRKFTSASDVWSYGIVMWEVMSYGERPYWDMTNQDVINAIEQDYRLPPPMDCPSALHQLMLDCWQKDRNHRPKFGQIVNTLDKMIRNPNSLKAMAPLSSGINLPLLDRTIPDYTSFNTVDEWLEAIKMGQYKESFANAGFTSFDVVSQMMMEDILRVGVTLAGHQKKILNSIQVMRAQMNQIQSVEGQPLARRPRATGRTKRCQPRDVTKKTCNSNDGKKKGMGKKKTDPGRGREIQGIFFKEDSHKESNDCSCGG

Sequence | phosphorylation enrichment (AncSZ) | phosphorylation enrichment (EPHB1) | phosphorylation enrichment (EPHB2) | phosphorylation enrichment (FGFR1) | phosphorylation enrichment (FGFR3) | phosphorylation enrichment (Fer (mouse)) | phosphorylation enrichment (Fes) | phosphorylation enrichment (Fyn) | phosphorylation enrichment (Hck) | phosphorylation enrichment (Jak2) | phosphorylation enrichment (MERTK) | phosphorylation enrichment (c-Abl (mouse)) | phosphorylation enrichment (c-Src) | SH2 binding enrichment (Grb2 SH2) | SH2 binding enrichment (SHP2-C SH2) | SH2 binding enrichment (c-Src SH2)
AVNDFYAAKKT [CCDC178_Y422] | 0.629 | 0.464 | 0.372 | 0.648 | 0.551 | 0.381 | 0.703 | 0.508 | 0.5 | 0.548 | 0.449 | 0.61 | 0.429 | 1.07 | 0.87 | 0.457
AVRVFYRKCPH [EPHB2_Y194_R199H] | 1.22 | 0.588 | 0.711 | 0.563 | 0.668 | 0.452 | 1.08 | 0.496 | 0.604 | 0.804 | 0.485 | 1.14 | 0.424 | 0.646 | 0.497 | 0.509
CEHFSYFGMKA [SLC15A2_Y60_R57H_YF] | 0.879 | 0.555 | 0.516 | 1.61 | 0.902 | 0.452 | 0.845 | 0.379 | 0.444 | 3.82 | 0.469 | 0.605 | 0.673 | 0.801 | 0.545 | 0.604
CLAKMYYSAVD [CP_Y539] | 1.14 | 1.02 | 0.701 | 0.812 | 0.936 | 1.18 | 1.18 | 0.572 | 0.708 | 0.956 | 2.33 | 0.674 | 0.722 | 0.942 | 0.902 | 3.43
CPYNLYAAQLS [HGD_Y40_E42A] | 1.28 | 4.48 | 4.3 | 0.815 | 0.939 | 3.49 | 1.13 | 3.15 | 3.08 | 0.917 | 5.62 | 0.857 | 6.42 | 0.895 | 0.672 | 0.603
CRAVKYLQMVD [AVPR2_Y117_G122D] | 0.71 | 0.508 | 0.456 | 0.427 | 0.585 | 0.419 | 0.922 | 0.503 | 0.456 | 0.675 | 0.354 | 0.535 | 0.318 | 0.798 | 0.755 | 0.532
CTIIHYNFMCN [TP53_Y234_T231I_YF] | 1.12 | 0.718 | 0.553 | 0.524 | 0.993 | 0.686 | 1.54 | 0.482 | 0.56 | 1.5 | 0.434 | 0.825 | 0.445 | 1.71 | 1.73 | 1.23
CTTIHDNYMCN [TP53_Y234_Y234D] | 0.817 | 0.521 | 0.556 | 0.541 | 0.539 | 0.54 | 1 | 0.435 | 0.546 | 0.799 | 0.507 | 0.551 | 0.44 | 1.21 | 0.837 | 0.922
CTTIHYNYMHN [TP53_Y234_C238H] | 0.692 | 0.528 | 0.536 | 0.479 | 0.521 | 0.488 | 0.767 | 0.447 | 0.407 | 0.531 | 0.433 | 0.446 | 0.349 | 0.995 | 0.857 | 1.86
CTTNHYNFMCN [TP53_Y234_I232N_YF] | 0.811 | 0.436 | 0.544 | 0.626 | 0.556 | 0.486 | 0.67 | 0.463 | 0.424 | 0.511 | 0.437 | 0.489 | 0.497 | 0.962 | 1.12 | 3.79
CTTSHYNFMCN [TP53_Y234_I232S_YF] | 0.911 | 0.516 | 0.533 | 0.509 | 0.637 | 0.552 | 0.967 | 0.484 | 0.446 | 0.884 | 0.455 | 0.613 | 0.48 | 1.14 | 1.04 | 4.04
CYCSWYRGWAP [TIMP3_Y195_G190C] | 1.03 | 0.628 | 0.632 | 1.19 | 1.02 | 3.41 | 1.08 | 0.721 | 1.01 | 1.04 | 0.733 | 0.882 | 3.7 | 1.31 | 1.26 | 1.08
DAAEDYAEGVR [DHODH_Y194] | 1.21 | 0.549 | 0.671 | 0.561 | 0.746 | 0.629 | 1.31 | 0.542 | 0.586 | 0.951 | 0.45 | 0.695 | 0.45 | 0.937 | 0.63 | 0.701
DAANNYARGHY [TUBA3E_Y103_S101N] | 0.691 | 0.412 | 0.37 | 0.469 | 0.45 | 0.355 | 0.575 | 0.421 | 0.436 | 0.546 | 0.528 | 0.559 | 0.442 | 0.85 | 0.558 | 0.509
DALDNYVVRGV [PCCA_Y473_I475V] | 0.751 | 0.499 | 0.536 | 0.458 | 0.466 | 0.387 | 0.823 | 0.507 | 0.394 | 0.793 | 0.37 | 0.674 | 0.436 | 0.732 | 0.725 | 0.617
DDEENYENVPR [FCRL3_Y722] | 1.3 | 0.619 | 0.572 | 0.567 | 0.773 | 0.57 | 1.19 | 0.555 | 0.589 | 1.11 | 0.45 | 0.786 | 0.428 | 1.04 | 0.9 | 0.699
DDKQPYEKKAE [HMGB1_Y144_A149E] | 1.12 | 0.516 | 0.645 | 0.529 | 0.631 | 0.464 | 1.04 | 0.53 | 0.579 | 0.921 | 0.515 | 0.828 | 0.43 | 1.09 | 0.756 | 0.736

Sequence | phosphorylation enrichment (AncSZ) | phosphorylation enrichment (EPHB1) | phosphorylation enrichment (EPHB2) | phosphorylation enrichment (FGFR1) | phosphorylation enrichment (FGFR3) | phosphorylation enrichment (Fer (mouse)) | phosphorylation enrichment (Fes) | phosphorylation enrichment (Fyn) | phosphorylation enrichment (Hck) | phosphorylation enrichment (Jak2) | phosphorylation enrichment (MERTK) | phosphorylation enrichment (c-Abl (mouse)) | phosphorylation enrichment (c-Src) | SH2 binding enrichment (Grb2 SH2) | SH2 binding enrichment (SHP2-C SH2) | SH2 binding enrichment (c-Src SH2)
DENWFYTQAAS [RPS19_Y54_R56Q] | 1.15 | 0.49 | 0.877 | 0.455 | 0.682 | 0.483 | 1.06 | 0.388 | 0.392 | 0.876 | 0.395 | 0.62 | 0.472 | 0.906 | 0.726 | 0.881
DFFDLYGGEKL [PTPN11_Y66_F71L_YF] | 1.54 | 0.743 | 0.901 | 0.582 | 0.746 | 0.816 | 1.92 | 2.1 | 3.61 | 1.88 | 0.9 | 1.02 | 3.79 | 1.02 | 0.979 | 0.71
DFLSSYSAVNQ [OAT_Y85] | 1.04 | 0.658 | 0.493 | 0.433 | 0.698 | 1.17 | 0.947 | 0.427 | 0.531 | 0.997 | 0.558 | 0.703 | 0.61 | 1.1 | 3.8 | 2.01
DFTEAYNSKIK [CLK1_Y305_P307S_YF] | 0.899 | 0.721 | 0.622 | 0.592 | 0.65 | 0.465 | 1.02 | 0.512 | 0.526 | 0.908 | 0.464 | 0.795 | 0.56 | 0.945 | 0.613 | 0.45
DGKFSYLKVGH [GRM3_Y480_G475D_YF] | 0.678 | 0.444 | 0.388 | 0.467 | 0.478 | 0.338 | 1.16 | 0.33 | 0.337 | 0.599 | 0.505 | 0.575 | 0.411 | 0.838 | 0.671 | 0.421
DGLASYLDKVR [KRT12_Y139_R135G] | 0.664 | 0.41 | 0.414 | 0.363 | 0.51 | 0.365 | 0.757 | 0.422 | 0.375 | 0.631 | 0.415 | 0.685 | 0.414 | 0.872 | 0.737 | 0.437
DGQVNYEEFVQ [CALM1_Y139] | 1.33 | 1.62 | 1.28 | 0.608 | 0.841 | 0.659 | 1.42 | 0.505 | 0.626 | 1.2 | 0.487 | 0.957 | 0.576 | 0.784 | 0.493 | 0.399
DGTESYLTVSS [PLK1_Y462] | 0.89 | 0.447 | 0.467 | 0.454 | 0.59 | 0.487 | 0.954 | 0.453 | 0.443 | 0.845 | 0.387 | 0.687 | 0.465 | 0.628 | 0.713 | 0.475
DISEPYEVFRI [IRF8_Y107_K108E_YF] | 2.21 | 0.665 | 0.559 | 0.661 | 0.725 | 12.3 | 1.15 | 1.91 | 1.81 | 1.09 | 0.572 | 1.09 | 4.48 | 1.03 | 0.916 | 0.663
DISEPYEVYRI [IRF8_Y107_K108E] | 2.01 | 0.425 | 0.634 | 0.736 | 0.624 | 9.63 | 1.05 | 1.55 | 1.28 | 0.912 | 0.522 | 0.862 | 3.97 | 0.76 | 0.401 | 0.638
DLDATYRPMFS [JUP_Y701_M697L_YF] | 0.722 | 0.636 | 0.557 | 0.491 | 0.557 | 0.489 | 0.85 | 0.522 | 0.686 | 0.673 | 0.33 | 0.662 | 0.542 | 0.72 | 0.713 | 0.5
DLVRPYVHKIL [SF3B1_Y570] | 0.636 | 0.519 | 0.586 | 0.466 | 0.566 | 0.534 | 0.743 | 0.703 | 0.449 | 0.55 | 0.504 | 0.539 | 0.43 | 0.849 | 1.16 | 0.679
DLVSEYQQYQD [TUBB3_Y422] | 1.57 | 0.721 | 0.704 | 0.523 | 0.858 | 0.709 | 1.37 | 0.706 | 0.656 | 1.42 | 0.488 | 1.04 | 0.677 | 0.989 | 0.642 | 0.597
DPADRYLTEQF [CDKL5_Y286_C291Y_YF] | 1.11 | 0.514 | 0.747 | 0.591 | 0.645 | 0.513 | 1.35 | 0.527 | 0.558 | 1.11 | 0.6 | 0.733 | 0.594 | 0.889 | 0.618 | 0.571
DPASAYADEVK [ETNPPL_Y189_S185P] | 1.06 | 0.628 | 0.469 | 0.473 | 0.724 | 0.495 | 1.2 | 0.492 | 0.557 | 1.06 | 0.435 | 0.794 | 0.416 | 0.941 | 0.462 | 0.671
DPHQQYFIAMD [TBX15_Y159_YF] | 0.93 | 0.504 | 0.577 | 1.02 | 1.19 | 0.396 | 1.1 | 0.551 | 0.544 | 1.06 | 0.511 | 0.792 | 0.637 | 0.917 | 0.71 | 0.655
